# Positions count from the first letter of the chain named.
# T1: FcγRIIa(R) (human, UniProt P12318 34-217)
# T1 construct: extracellular domain; also called FcγRIIa R type; 2aR
# T1 sequence: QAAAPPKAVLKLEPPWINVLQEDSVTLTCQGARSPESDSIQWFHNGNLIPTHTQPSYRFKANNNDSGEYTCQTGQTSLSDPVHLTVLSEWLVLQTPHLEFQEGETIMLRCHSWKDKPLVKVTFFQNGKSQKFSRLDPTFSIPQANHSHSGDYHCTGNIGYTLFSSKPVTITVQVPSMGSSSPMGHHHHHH
# T2: FcγRIIb (human, UniProt P31994 43-217)
# T2 construct: extracellular domain; also called 2b
# T2 sequence: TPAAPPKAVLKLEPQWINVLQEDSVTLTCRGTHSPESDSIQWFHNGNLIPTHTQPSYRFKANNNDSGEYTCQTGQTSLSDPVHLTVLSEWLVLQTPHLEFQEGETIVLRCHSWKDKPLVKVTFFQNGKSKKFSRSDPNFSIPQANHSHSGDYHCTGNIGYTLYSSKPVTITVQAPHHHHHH
# T3: FcγRIIa(H) (human, UniProt P12318 34-217)
# T3 construct: extracellular domain; also called FcγRIIa H type; 2aH
# T3 sequence: T1 sequence with R134H
# B1: GpH7-A5/GpH7-B3 variant L235_20W/GpL16-k0 (antibody, human IgG1, kappa)
# heavy 1: not shown
# heavy 2: not shown
# light: DIVMTQSPLSLPVTPGEPASISCQASESLVHSNRNTYLHWYLQKPGQSPQLLIYKVSNRFSGVPDRFSGSGSGTDFTLKISRVEAEDVGVYYCSQNTHVPPTFGQGTKVEIERTVAAPSVFIFPPSDEQLKSGTASVVCLLNNFYPREAKVQWKVDNALQSGNSQESVTEQDSKDSTYSLSSTLTLSKADYEKHKVYACEVTHQGLSSPVTKSFNRGEC
# notes: heterodimerized IgG1, one H chain mutated; also called He Ab
# B2: GpH7-A5/GpH7-B3 variant P238_08L/GpL16-k0 (antibody, human IgG1, kappa)
# heavy 1: not shown
# heavy 2: not shown
# light: B1 light
# notes: as for B1
# B3: GpH7-A5/GpH7-B3 variant P238_09D/GpL16-k0 (antibody, human IgG1, kappa)
# heavy 1: not shown
# heavy 2: not shown
# light: B1 light
# notes: as for B1
# B4: GpH7-A5/GpH7-B3 variant P238_10E/GpL16-k0 (antibody, human IgG1, kappa)
# heavy 1: not shown
# heavy 2: not shown
# light: B1 light
# notes: as for B1
# B5: GpH7-A5/GpH7-B3 variant P238_15Y/GpL16-k0 (antibody, human IgG1, kappa)
# heavy 1: not shown
# heavy 2: not shown
# light: B1 light
# notes: as for B1
# B6: GpH7-A5/GpH7-B3 variant P238_19Q/GpL16-k0 (antibody, human IgG1, kappa)
# heavy 1: not shown
# heavy 2: not shown
# light: B1 light
# notes: as for B1
# B7: GpH7-A5/GpH7-B3 variant P271_04F/GpL16-k0 (antibody, human IgG1, kappa)
# heavy 1: not shown
# heavy 2: not shown
# light: B1 light
# notes: as for B1
# B8: GpH7-A5/GpH7-B3 variant P271_14T/GpL16-k0 (antibody, human IgG1, kappa)
# heavy 1: not shown
# heavy 2: not shown
# light: B1 light
# notes: as for B1
# B9: GpH7-A5/GpH7-B3 variant P271_15Y/GpL16-k0 (antibody, human IgG1, kappa)
# heavy 1: not shown
# heavy 2: not shown
# light: B1 light
# notes: as for B1
# B10: GpH7-A5/GpH7-B3 variant P271_16H/GpL16-k0 (antibody, human IgG1, kappa)
# heavy 1: not shown
# heavy 2: not shown
# light: B1 light
# notes: as for B1
# B11: GpH7-A5/GpH7-B3 variant S239_01G/GpL16-k0 (antibody, human IgG1, kappa)
# heavy 1: not shown
# heavy 2: not shown
# light: B1 light
# notes: as for B1
# B12: GpH7-A5/GpH7-B3 variant S239_02A/GpL16-k0 (antibody, human IgG1, kappa)
# heavy 1: not shown
# heavy 2: not shown
# light: B1 light
# notes: as for B1
# B13: GpH7-A5/GpH7-B3 variant S239_03V/GpL16-k0 (antibody, human IgG1, kappa)
# heavy 1: not shown
# heavy 2: not shown
# light: B1 light
# notes: as for B1
# B14: GpH7-A5/GpH7-B3 variant S239_06M/GpL16-k0 (antibody, human IgG1, kappa)
# heavy 1: not shown
# heavy 2: not shown
# light: B1 light
# notes: as for B1
# B15: GpH7-A5/GpH7-B3 variant S239_07I/GpL16-k0 (antibody, human IgG1, kappa)
# heavy 1: not shown
# heavy 2: not shown
# light: B1 light
# notes: as for B1
# B16: GpH7-A5/GpH7-B3 variant S239_08L/GpL16-k0 (antibody, human IgG1, kappa)
# heavy 1: not shown
# heavy 2: not shown
# light: B1 light
# notes: as for B1
# B17: GpH7-A5/GpH7-B3 variant S239_09D/GpL16-k0 (antibody, human IgG1, kappa)
# heavy 1: not shown
# heavy 2: not shown
# light: B1 light
# notes: as for B1
# B18: GpH7-A5/GpH7-B3 variant S239_10E/GpL16-k0 (antibody, human IgG1, kappa)
# heavy 1: not shown
# heavy 2: not shown
# light: B1 light
# notes: as for B1
# B19: GpH7-A5/GpH7-B3 variant S239_14T/GpL16-k0 (antibody, human IgG1, kappa)
# heavy 1: not shown
# heavy 2: not shown
# light: B1 light
# notes: as for B1
# B20: GpH7-A5/GpH7-B3 variant S239_18N/GpL16-k0 (antibody, human IgG1, kappa)
# heavy 1: not shown
# heavy 2: not shown
# light: B1 light
# notes: as for B1
# B21: GpH7-A5/GpH7-B3 variant S239_19Q/GpL16-k0 (antibody, human IgG1, kappa)
# heavy 1: not shown
# heavy 2: not shown
# light: B1 light
# notes: as for B1
# B22: GpH7-A5/GpH7-B3 variant S267_01G/GpL16-k0 (antibody, human IgG1, kappa)
# heavy 1: not shown
# heavy 2: not shown
# light: B1 light
# notes: as for B1
# B23: GpH7-A5/GpH7-B3 variant S267_02A/GpL16-k0 (antibody, human IgG1, kappa)
# heavy 1: not shown
# heavy 2: not shown
# light: B1 light
# notes: as for B1
# B24: GpH7-A5/GpH7-B3 variant S267_09D/GpL16-k0 (antibody, human IgG1, kappa)
# heavy 1: not shown
# heavy 2: not shown
# light: B1 light
# notes: as for B1
# B25: GpH7-A5/GpH7-B3 variant S267_10E/GpL16-k0 (antibody, human IgG1, kappa)
# heavy 1: not shown
# heavy 2: not shown
# light: B1 light
# notes: as for B1
# B26: GpH7-A5/GpH7-B3 variant S267_19Q/GpL16-k0 (antibody, human IgG1, kappa)
# heavy 1: not shown
# heavy 2: not shown
# light: B1 light
# notes: as for B1
# B27: GpH7-A5/GpH7-B3 variant V266_02A/GpL16-k0 (antibody, human IgG1, kappa)
# heavy 1: not shown
# heavy 2: not shown
# light: B1 light
# notes: as for B1
# B28: GpH7-A5/GpH7-B3 variant V266_06M/GpL16-k0 (antibody, human IgG1, kappa)
# heavy 1: not shown
# heavy 2: not shown
# light: B1 light
# notes: as for B1
# B29: GpH7-A5/GpH7-B3 variant V266_07I/GpL16-k0 (antibody, human IgG1, kappa)
# heavy 1: not shown
# heavy 2: not shown
# light: B1 light
# notes: as for B1
# Biological target: T1, FcγRIIa(R)
# Assay: SPR (Biacore), binding relative to GpH7-A5/GpH7-B3/GpL16-k0 x100;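 further: surface plasmon resonance at 25 °C, antibody captured on a sensor chip and soluble FcγR flowed over it in HBS-EP+ running buffer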
# Protocol: (§1) The antibody of interest was analyzed for its interaction with FcγR using a BiaCore™ T100, BiaCore™ A100, or BiaCore™ 4000 surface plasmon resonance system (GE Healthcare Japan Corp.). The running buffer used was HBS-EP+ (GE Healthcare Japan Corp.). The assay temperature was set to 25° C. The sensor chips used were: a chip prepared by immobilizing antigenic peptides onto Series S Sensor Chip CM5 (GE Healthcare Japan Corp.) by the amine coupling method; a chip prepared by immobilizing antigenic peptides biotinylated in advance onto Series S Sensor Chip SA (certified) (GE Healthcare Japan Corp.) through their interaction; a chip prepared by immobilizing protein L (ACTIGEN, BioVision, Inc.) onto Series S Sensor Chip CM5 (GE Healthcare Japan Corp.); and a chip prepared by immobilizing protein A/G (Thermo Fisher Scientific K.K.) onto Series S Sensor Chip CM5 (GE Healthcare Japan Corp.). The antibody of interest was captured onto any of these chips and allowed to interact with FcγR diluted with a running buffer. The antibody captured on the chip was washed off through the reaction of 10 mM glycine-HCl (pH 1.5) to regenerate the chip, which was repetitively used.
row,Binder,He/Con 2aR [%]
1,B1,152
2,B2,132
3,B3,140
4,B4,142
5,B5,147
6,B6,97.8
7,B7,75.2
8,B8,94.7
9,B9,70
10,B10,79
11,B11,120
12,B12,89.8
13,B13,94.1
14,B14,94.7
15,B15,95.9
16,B16,114
17,B17,129
18,B18,127
19,B19,97.4
20,B20,104
21,B21,79.8
22,B22,121
23,B23,167
24,B24,186
25,B25,188
26,B26,145
27,B27,88.8
28,B28,161
29,B29,129

# Biological target: T2, FcγRIIb
# Assay: as above
# Protocol: as §1
row,Binder,He/Con 2b [%]
1,B1,168
2,B2,207
3,B3,224
4,B4,235
5,B5,221
6,B6,112
7,B7,66.7
8,B8,107
9,B9,58.6
10,B10,76.2
11,B11,146
12,B12,91.6
13,B13,110
14,B14,102
15,B15,108
16,B16,142
17,B17,209
18,B18,183
19,B19,98.6
20,B20,121
21,B21,87.3
22,B22,110
23,B23,256
24,B24,326
25,B25,398
26,B26,228
27,B27,85.1
28,B28,264
29,B29,160

# Biological target: T3, FcγRIIa(H)
# Assay: as above
# Protocol: as §1
row,Binder,He/Con 2aH [%]
1,B1,131
2,B2,81.8
3,B3,84.7
4,B4,74.6
5,B5,57.8
6,B6,54.5
7,B7,77.1
8,B8,69.8
9,B9,74
10,B10,76.4
11,B11,93.8
12,B12,89.9
13,B13,88
14,B14,95.4
15,B15,88.5
16,B16,101
17,B17,111
18,B18,108
19,B19,95.9
20,B20,91.1
21,B21,80
22,B22,72.1
23,B23,121
24,B24,107
25,B25,103
26,B26,61.9
27,B27,69.7
28,B28,84.8
29,B29,107

# Biological target: T4, FcγRIa (human, UniProt P12314 16-292)
# T4 construct: extracellular domain; also called 1a
# Assay: as above
# Protocol: as §1
# T4 sequence (P12314 other isoform, or with tags, fused parts or gaps): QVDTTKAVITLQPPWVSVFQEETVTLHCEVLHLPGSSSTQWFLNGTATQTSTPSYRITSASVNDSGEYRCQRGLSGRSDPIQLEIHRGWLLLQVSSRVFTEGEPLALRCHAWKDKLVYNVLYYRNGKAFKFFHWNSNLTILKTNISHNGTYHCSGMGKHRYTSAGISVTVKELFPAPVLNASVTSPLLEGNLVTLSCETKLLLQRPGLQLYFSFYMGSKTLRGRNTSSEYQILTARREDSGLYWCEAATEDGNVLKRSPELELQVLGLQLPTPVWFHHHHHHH
row,Binder,He/Con 1a [%]
1,B1,95.9
2,B2,104
3,B3,99
4,B4,105
5,B5,104
6,B6,101
7,B7,100
8,B8,101
9,B9,101
10,B10,100
11,B11,104
12,B12,103
13,B13,98.9
14,B14,102
15,B15,101
16,B16,103
17,B17,104
18,B18,108
19,B19,104
20,B20,104
21,B21,104
22,B22,99.9
23,B23,105
24,B24,106
25,B25,102
26,B26,99.2
27,B27,93.8
28,B28,96.5
29,B29,96.1

# Source: patent publication US20260167699A1 (Chugai, published 2026)
